Assay results reported in paper PMC4512712 (Biochemistry, 2015).
Residue numbers refer to the chain shown, from its start. Numbers in names are those of the source. Where “and” joins values, the source holds several entries; their conditions need not be identical. Equal entries are not always repeated. Where two headings read alike, the source gives them in different places.

B1: Alpha-B-crystallin ACD ACD (protein)
chain: GLSEMRLEKDRFSVNLDVKHFSPEELKVKVLGDVIEVHGKHEERQDEHGFISREFHRKYRIPADVDPLTITSSLSSDGVLTVNGPRKQV
B2: E117C-ACD-only (HSPB5 residues 64-152, E117C) (domain or fragment)
chain: B1 chain with E54C
modifications: disulfide-locked dimer through C117 under nonreducing conditions
B3: HSPB6, full length, C46S (natural protein)
chain: MEIPVPVQPSWLRRASAPLPGLSAPGRLFDQRFGEGLLEAELAALSPTTLAPYYLRAPSVALPVAQVPTDPGHFSVLLDVKHFSPEEIAVKVVGEHVEVHARHEERPDEHGFVAREFHRRYRLPPGVDPAAVTSALSPEGVLSIQAAPASAQAPPPAAAK
B4: S135Q-HSPB5, full-length oligomer (natural protein)
chain: MDIAIHHPWIRRPFFPFHSPSRLFDQFFGEHLLESDLFPTSTSLSPFYLRPPSFLRAPSWFDTGLSEMRLEKDRFSVNLDVKHFSPEELKVKVLGDVIEVHGKHEERQDEHGFISREFHRKYRIPADVDPLTITQSLSSDGVLTVNGPRKQVSGPERTIPITREEKPAVTAAPKK

Tests used:
[1] = biological target: the molecule itself
[2] = biological target: T1, Alpha-B-crystallin CTR CTR (Homo sapiens, UniProt P02511)
T1 chain: ERTIPITRE

[3] = biological target: B4; experiment: SEC
[4] = biological target: T2, E117C-HSPB5, full length (oligomeric) (human, UniProt P02511 1-175, E117C); experiment: cross-linking
T2 sequence: B4 chain with E117C, Q135S

[5] = biological target: T3, S135Q/E117C full-length HSPB5 oligomer (human, UniProt P02511 1-175, E117C | S135Q); experiment: cross-linking
T3 sequence: B4 chain with E117C

[6] = biological target: T4, ΔN-HSPB6 (residues 65-160) (human, UniProt O14558 65-160); experiment: NMR titration
T4 sequence: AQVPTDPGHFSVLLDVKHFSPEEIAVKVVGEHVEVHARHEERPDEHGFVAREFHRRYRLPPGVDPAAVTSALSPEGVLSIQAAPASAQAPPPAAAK

[7] = biological target: B4; experiment: SEC; remark: listed apart in the source
SEC = biological target: the molecule itself; experiment: SEC

B1
Kd [1]: ~2 µM | Kd [2]: ~100 µM | binding result [3]: binds

B2
binding result [4]: binds | binding result [5]: binds

PERTIPITREEK [HSPB5-CTR peptide PERTIPITREEK]
binding result [6]: binds

B3
binding result [7]: binds | stoichiometry N (SEC): 2 and 4

B4
binding result (SEC): binds
